Several values for one entry are separate records, joined by “and”; a condition that tells them apart may be missing. Equal entries are not always repeated.
Columns and labels:
[1] = target: human erythrocyte spectrin (human, UniProt P02549;P11277); test: co-sedimentation
[2] = target: chicken skeletal muscle actin (chicken, UniProt P68139 1-377); test: co-sedimentation

human erythrocyte spectrin, sequence (P02549 whole entry, chain 1 of 2): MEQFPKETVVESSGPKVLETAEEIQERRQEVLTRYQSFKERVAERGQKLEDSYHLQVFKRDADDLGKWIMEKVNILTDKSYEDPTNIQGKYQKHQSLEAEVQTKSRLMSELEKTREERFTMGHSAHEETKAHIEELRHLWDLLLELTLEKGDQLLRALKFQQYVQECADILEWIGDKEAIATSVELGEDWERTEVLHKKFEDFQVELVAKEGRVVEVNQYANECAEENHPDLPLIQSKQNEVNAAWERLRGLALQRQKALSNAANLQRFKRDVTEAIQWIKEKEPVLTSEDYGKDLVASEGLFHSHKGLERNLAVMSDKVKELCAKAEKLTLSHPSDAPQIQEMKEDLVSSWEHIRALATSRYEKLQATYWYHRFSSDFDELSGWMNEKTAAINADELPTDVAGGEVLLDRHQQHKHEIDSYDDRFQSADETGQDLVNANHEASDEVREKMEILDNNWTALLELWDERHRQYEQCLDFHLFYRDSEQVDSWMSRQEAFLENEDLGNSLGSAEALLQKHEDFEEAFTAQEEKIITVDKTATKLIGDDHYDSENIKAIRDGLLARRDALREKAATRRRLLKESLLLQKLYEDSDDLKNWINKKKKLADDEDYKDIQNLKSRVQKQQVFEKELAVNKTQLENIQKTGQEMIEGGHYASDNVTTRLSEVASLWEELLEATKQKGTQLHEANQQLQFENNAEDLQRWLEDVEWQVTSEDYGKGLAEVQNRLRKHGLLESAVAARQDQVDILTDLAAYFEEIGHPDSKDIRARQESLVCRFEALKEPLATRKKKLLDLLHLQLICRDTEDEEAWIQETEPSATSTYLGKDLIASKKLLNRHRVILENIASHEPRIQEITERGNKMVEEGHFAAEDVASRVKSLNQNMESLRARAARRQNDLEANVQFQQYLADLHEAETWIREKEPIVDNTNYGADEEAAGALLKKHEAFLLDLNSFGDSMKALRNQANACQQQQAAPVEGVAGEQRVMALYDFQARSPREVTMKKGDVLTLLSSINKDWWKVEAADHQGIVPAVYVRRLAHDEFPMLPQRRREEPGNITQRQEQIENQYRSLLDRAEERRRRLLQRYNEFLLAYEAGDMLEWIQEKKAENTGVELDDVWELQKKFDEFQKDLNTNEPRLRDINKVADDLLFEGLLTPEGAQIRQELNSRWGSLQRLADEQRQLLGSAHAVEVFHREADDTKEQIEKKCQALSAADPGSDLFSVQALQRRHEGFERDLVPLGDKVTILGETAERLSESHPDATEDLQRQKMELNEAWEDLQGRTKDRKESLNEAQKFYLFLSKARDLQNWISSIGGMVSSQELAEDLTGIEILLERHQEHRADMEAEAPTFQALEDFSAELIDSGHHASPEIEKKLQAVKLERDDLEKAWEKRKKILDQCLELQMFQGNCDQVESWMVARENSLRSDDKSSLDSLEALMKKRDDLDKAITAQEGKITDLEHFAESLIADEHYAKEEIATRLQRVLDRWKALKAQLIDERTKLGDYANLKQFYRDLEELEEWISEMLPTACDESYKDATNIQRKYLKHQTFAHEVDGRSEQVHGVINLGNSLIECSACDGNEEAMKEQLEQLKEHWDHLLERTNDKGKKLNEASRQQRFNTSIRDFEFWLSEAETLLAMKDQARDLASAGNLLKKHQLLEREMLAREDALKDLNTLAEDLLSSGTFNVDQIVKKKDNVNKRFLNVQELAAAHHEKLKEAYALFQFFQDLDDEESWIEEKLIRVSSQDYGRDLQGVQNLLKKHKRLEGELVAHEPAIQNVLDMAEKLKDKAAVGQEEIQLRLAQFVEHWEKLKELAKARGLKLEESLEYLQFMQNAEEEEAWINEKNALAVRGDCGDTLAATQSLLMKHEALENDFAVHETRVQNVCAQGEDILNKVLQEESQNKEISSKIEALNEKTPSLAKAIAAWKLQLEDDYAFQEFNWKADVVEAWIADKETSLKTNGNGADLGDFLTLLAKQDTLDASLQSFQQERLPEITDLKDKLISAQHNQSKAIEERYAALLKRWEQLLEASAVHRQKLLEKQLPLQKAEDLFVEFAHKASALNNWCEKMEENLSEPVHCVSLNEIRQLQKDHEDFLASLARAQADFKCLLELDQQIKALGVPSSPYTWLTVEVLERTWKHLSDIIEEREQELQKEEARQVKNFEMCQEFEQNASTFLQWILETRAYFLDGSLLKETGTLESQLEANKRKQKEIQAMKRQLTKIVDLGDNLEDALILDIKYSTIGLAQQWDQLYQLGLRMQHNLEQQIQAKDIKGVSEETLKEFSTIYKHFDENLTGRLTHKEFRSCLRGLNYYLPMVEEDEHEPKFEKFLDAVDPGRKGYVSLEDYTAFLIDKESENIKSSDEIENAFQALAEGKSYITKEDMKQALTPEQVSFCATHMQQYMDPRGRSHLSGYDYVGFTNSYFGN
human erythrocyte spectrin, sequence (P11277 whole entry, chain 2 of 2): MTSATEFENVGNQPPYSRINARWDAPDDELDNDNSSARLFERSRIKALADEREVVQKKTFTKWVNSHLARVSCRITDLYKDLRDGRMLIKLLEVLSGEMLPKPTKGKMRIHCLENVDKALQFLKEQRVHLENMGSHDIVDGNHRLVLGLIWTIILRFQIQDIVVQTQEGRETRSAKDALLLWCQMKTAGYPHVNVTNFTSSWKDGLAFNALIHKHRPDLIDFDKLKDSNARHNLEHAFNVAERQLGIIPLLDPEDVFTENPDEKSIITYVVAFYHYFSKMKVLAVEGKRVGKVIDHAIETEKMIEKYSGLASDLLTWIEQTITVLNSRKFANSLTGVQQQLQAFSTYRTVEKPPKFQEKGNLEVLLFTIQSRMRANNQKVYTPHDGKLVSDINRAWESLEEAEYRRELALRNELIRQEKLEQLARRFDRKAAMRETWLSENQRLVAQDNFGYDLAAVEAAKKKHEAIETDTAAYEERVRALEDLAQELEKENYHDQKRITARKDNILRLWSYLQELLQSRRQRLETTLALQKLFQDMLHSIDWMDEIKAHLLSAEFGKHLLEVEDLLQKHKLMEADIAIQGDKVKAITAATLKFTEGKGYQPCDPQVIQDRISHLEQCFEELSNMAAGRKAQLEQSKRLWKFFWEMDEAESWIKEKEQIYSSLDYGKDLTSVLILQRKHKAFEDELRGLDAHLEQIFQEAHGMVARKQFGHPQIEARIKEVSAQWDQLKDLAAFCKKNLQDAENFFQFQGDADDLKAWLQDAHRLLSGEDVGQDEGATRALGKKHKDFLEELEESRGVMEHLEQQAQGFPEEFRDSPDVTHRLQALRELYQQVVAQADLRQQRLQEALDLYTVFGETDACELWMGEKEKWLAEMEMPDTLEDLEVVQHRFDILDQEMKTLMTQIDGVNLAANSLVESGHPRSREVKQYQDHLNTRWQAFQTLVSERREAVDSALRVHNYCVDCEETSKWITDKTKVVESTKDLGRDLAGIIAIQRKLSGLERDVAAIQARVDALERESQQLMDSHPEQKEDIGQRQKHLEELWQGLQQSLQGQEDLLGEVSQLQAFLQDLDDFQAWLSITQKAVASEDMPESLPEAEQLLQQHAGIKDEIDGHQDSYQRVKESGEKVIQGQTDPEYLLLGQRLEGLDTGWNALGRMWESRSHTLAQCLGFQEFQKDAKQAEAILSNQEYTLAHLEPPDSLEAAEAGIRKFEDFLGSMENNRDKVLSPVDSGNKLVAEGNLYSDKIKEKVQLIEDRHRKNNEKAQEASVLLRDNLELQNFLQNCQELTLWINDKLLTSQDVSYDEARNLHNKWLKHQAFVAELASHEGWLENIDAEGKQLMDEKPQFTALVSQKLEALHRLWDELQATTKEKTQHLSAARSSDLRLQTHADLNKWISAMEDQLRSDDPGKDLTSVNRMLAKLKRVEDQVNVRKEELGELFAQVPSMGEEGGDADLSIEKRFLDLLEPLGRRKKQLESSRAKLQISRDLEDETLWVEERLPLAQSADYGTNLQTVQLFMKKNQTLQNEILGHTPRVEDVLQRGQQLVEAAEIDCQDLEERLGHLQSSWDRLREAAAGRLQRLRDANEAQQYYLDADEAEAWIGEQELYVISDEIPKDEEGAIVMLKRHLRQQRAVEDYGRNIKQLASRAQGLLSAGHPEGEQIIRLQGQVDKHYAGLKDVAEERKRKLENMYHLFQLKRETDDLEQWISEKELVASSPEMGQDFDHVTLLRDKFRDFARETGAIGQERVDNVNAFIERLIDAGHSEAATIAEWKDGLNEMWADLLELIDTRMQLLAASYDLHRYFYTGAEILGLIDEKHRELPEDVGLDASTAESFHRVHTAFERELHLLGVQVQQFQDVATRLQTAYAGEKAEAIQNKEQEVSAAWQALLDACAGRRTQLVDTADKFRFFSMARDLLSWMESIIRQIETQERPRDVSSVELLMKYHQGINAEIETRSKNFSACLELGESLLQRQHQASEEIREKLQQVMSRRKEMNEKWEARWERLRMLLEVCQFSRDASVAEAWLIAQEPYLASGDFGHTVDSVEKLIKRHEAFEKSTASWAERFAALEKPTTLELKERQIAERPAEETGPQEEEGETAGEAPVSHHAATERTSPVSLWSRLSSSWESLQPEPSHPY

| Kd [1] [nM] | Kd [2] [nM] | stoichiometry N [2] | Binder |
| --- | --- | --- | --- |
| 104 |  |  | adducin-actin complex (complex) chain 1: MNGDSRAAVVTSPPPTTAPHKERYFDRVDENNPEYLRERNMAPDLRQDFNMMEQKKRVSMILQSPAFCEELESMIQEQFKKGKNPTGLLALQQIADFMTTNVPNVYPAAPQGGMAALNMSLGMVTPVNDLRGSDSIAYDKGEKLLRCKLAAFYRLADLFGWSQLIYNHITTRVNSEQEHFLIVPFGLLYSEVTASSLVKINLQGDIVDRGSTNLGVNQAGFTLHSAIYAARPDVKCVVHIHTPAGAAVSAMKCGLLPISPEALSLGEVAYHDYHGILVDEEEKVLIQKNLGPKSKVLILRNHGLVSVGESVEEAFYYIHNLVVACEIQVRTLASAGGPDNLVLLNPEKYKAKSRSPGSPVGEGTGSPPKWQIGEQEFEALMRMLDNLGYRTGYPYRYPALREKSKKYSDVEVPASVTGYSFASDGDSGTCSPLRHSFQKQQREKTRWLNSGRGDEASEEGQNGSSPKSKTKWTKEDGHRTSTSAVPNLFVPLNTNPKEVQEMRNKIREQNLQDIKTAGPQSQVLCGVVMDRSLVQGELVTASKAIIEKEYQPHVIVSTTGPNPFTTLTDRELEEYRREVERKQKGSEENLDEAREQKEKSPPDQPAVPHPPPSTPIKLEEDLVPEPTTGDDSDAATFKPTLPDLSPDEPSEALGFPMLEKEEEAHRPPSPTEAPTEASPEPAPDPAPVAEEAAPSAVEEGAAADPGSDGSPGKSPSKKKKKFRTPSFLKKSKKKSDS chain 2: MSEETVPEAASPPPPQGQPYFDRFSEDDPEYMRLRNRAADLRQDFNLMEQKKRVTMILQSPSFREELEGLIQEQMKKGNNSSNIWALRQIADFMASTSHAVFPTSSMNVSMMTPINDLHTADSLNLAKGERLMRCKISSVYRLLDLYGWAQLSDTYVTLRVSKEQDHFLISPKGVSCSEVTASSLIKVNILGEVVEKGSSCFPVDTTGFCLHSAIYAARPDVRCIIHLHTPATAAVSAMKWGLLPVSHNALLVGDMAYYDFNGEMEQEADRINLQKCLGPTCKILVLRNHGVVALGDTVEEAFYKIFHLQAACEIQVSALSSAGGVENLILLEQEKHRPHEVGSVQWAGSTFGPMQKSRLGEHEFEALMRMLDNLGYRTGYTYRHPFVQEKTKHKSEVEIPATVTAFVFEEDGAPVPALRQHAQKQQKEKTRWLNTPNTYLRVNVADEVQRSMGSPRPKTTWMKADEVEKSSSGMPIRIENPNQFVPLYTDPQEVLEMRNKIREQNRQDVKSAGPQSQLLASVIAEKSRSPSTESQLMSKGDEDTKDDSEETVPNPFSQLTDQELEEYKKEVERKKLELDGEKETAPEEPGSPAKSAPASPVQSPAKEAETKSPLVSPSKSLEEGTKKTETSKAATTEPETTQPEGVVVNGREEEQTAEEILSKGLSQMTTSADTDVDTSKDKTESVTSGPMSPEGSPSKSPSKKKKKFRTPSFLKKSKKKEKVES chain 3: […] |
|  | 283 | ~0.143 M/M (adducin to actin) and 0.16 M/M (adducin to actin) | human erythrocyte adducin (complex) chain 1: MNGDSRAAVVTSPPPTTAPHKERYFDRVDENNPEYLRERNMAPDLRQDFNMMEQKKRVSMILQSPAFCEELESMIQEQFKKGKNPTGLLALQQIADFMTTNVPNVYPAAPQGGMAALNMSLGMVTPVNDLRGSDSIAYDKGEKLLRCKLAAFYRLADLFGWSQLIYNHITTRVNSEQEHFLIVPFGLLYSEVTASSLVKINLQGDIVDRGSTNLGVNQAGFTLHSAIYAARPDVKCVVHIHTPAGAAVSAMKCGLLPISPEALSLGEVAYHDYHGILVDEEEKVLIQKNLGPKSKVLILRNHGLVSVGESVEEAFYYIHNLVVACEIQVRTLASAGGPDNLVLLNPEKYKAKSRSPGSPVGEGTGSPPKWQIGEQEFEALMRMLDNLGYRTGYPYRYPALREKSKKYSDVEVPASVTGYSFASDGDSGTCSPLRHSFQKQQREKTRWLNSGRGDEASEEGQNGSSPKSKTKWTKEDGHRTSTSAVPNLFVPLNTNPKEVQEMRNKIREQNLQDIKTAGPQSQVLCGVVMDRSLVQGELVTASKAIIEKEYQPHVIVSTTGPNPFTTLTDRELEEYRREVERKQKGSEENLDEAREQKEKSPPDQPAVPHPPPSTPIKLEEDLVPEPTTGDDSDAATFKPTLPDLSPDEPSEALGFPMLEKEEEAHRPPSPTEAPTEASPEPAPDPAPVAEEAAPSAVEEGAAADPGSDGSPGKSPSKKKKKFRTPSFLKKSKKKSDS chain 2: MSEETVPEAASPPPPQGQPYFDRFSEDDPEYMRLRNRAADLRQDFNLMEQKKRVTMILQSPSFREELEGLIQEQMKKGNNSSNIWALRQIADFMASTSHAVFPTSSMNVSMMTPINDLHTADSLNLAKGERLMRCKISSVYRLLDLYGWAQLSDTYVTLRVSKEQDHFLISPKGVSCSEVTASSLIKVNILGEVVEKGSSCFPVDTTGFCLHSAIYAARPDVRCIIHLHTPATAAVSAMKWGLLPVSHNALLVGDMAYYDFNGEMEQEADRINLQKCLGPTCKILVLRNHGVVALGDTVEEAFYKIFHLQAACEIQVSALSSAGGVENLILLEQEKHRPHEVGSVQWAGSTFGPMQKSRLGEHEFEALMRMLDNLGYRTGYTYRHPFVQEKTKHKSEVEIPATVTAFVFEEDGAPVPALRQHAQKQQKEKTRWLNTPNTYLRVNVADEVQRSMGSPRPKTTWMKADEVEKSSSGMPIRIENPNQFVPLYTDPQEVLEMRNKIREQNRQDVKSAGPQSQLLASVIAEKSRSPSTESQLMSKGDEDTKDDSEETVPNPFSQLTDQELEEYKKEVERKKLELDGEKETAPEEPGSPAKSAPASPVQSPAKEAETKSPLVSPSKSLEEGTKKTETSKAATTEPETTQPEGVVVNGREEEQTAEEILSKGLSQMTTSADTDVDTSKDKTESVTSGPMSPEGSPSKSPSKKKKKFRTPSFLKKSKKKEKVES |

From publication PMC2114693 (The Journal of Cell Biology, 1987)
